± gives the standard error. This sample holds only a part of the variants without activity.
B1: glmS ribozyme (parent)
chain: AUAAAAGCGCCAGAACUACAGAAAUGUAGUUGACGAGGAGGAGGUUUAUCGAAUUUUCGGCGGAUGCCUCCAAA

Tests used:
Settings in all cases: with glucosamine-6-phosphate
[1] = variants of: B1; assay: self-cleavage kobs at 40 uM GlcN6P; higher = faster cleavage; RNA array
In short: (§1)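 Barcoded ribozyme variants, transcribed in situ by E. coli RNA polymerase on sequenced MiSeq chips, were followed via a hybridised Cy3 probe at 37 °C. Glucosamine-6-phosphate ranged from 40 μM to 10 mM in HEPES/KCl/Mg(OAc)2 buffer. kobs came from decay fits to per-tile medians, and kcat and KM from weighted Michaelis–Menten fits.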

[2] = variants of: B1; assay: self-cleavage kobs at 160 uM GlcN6P; higher = faster cleavage; RNA array
In short: as §1

[3] = variants of: B1; assay: self-cleavage kobs at 640 uM GlcN6P; higher = faster cleavage; RNA array
In short: as §1

[4] = variants of: B1; assay: self-cleavage kobs at 2500 uM GlcN6P; higher = faster cleavage; RNA array
In short: as §1

[5] = variants of: B1; assay: self-cleavage kobs at 10000 uM GlcN6P; higher = faster cleavage; RNA array
In short: as §1

Row | Variant | self-cleavage kobs at 40 uM GlcN6P [1] [s⁻¹] | self-cleavage kobs at 160 uM GlcN6P [2] [s⁻¹] | self-cleavage kobs at 640 uM GlcN6P [3] [s⁻¹] | self-cleavage kobs at 2500 uM GlcN6P [4] [s⁻¹] | self-cleavage kobs at 10000 uM GlcN6P [5] [s⁻¹]
1 | G9U U31G | < 1e-05 | < 1e-05 | < 1e-05 | < 1e-05 | < 1e-05
2 | G9U C11U C68U | < 1e-05 |  |  |  | 
3 | C8U C50G C58G C71U | 0.000808 ± 0.00019 |  |  |  | 0.000113 ± 2.1e-05
4 | G9U A39U C68U | < 1e-05 |  |  |  | 
5 | C10A A33C A64C | < 1e-05 |  |  | < 1e-05 | < 1e-05
6 | C10G G44U C68U C70U | < 1e-05 |  |  |  | < 1e-05
7 | G9U A33U A53U C61G | < 1e-05 |  |  |  | 
8 | C8U G62U U69G | 0.00021 ± 7.2e-05 |  |  |  | 0.000358 ± 0.00015
9 | G9U A36G A42U G44U | < 1e-05 |  | < 1e-05 | < 1e-05 | 
10 | C10G C34A A48C U49C | < 1e-05 |  |  |  | 
11 | C10G G37A | < 1e-05 | < 1e-05 | < 1e-05 |  | < 1e-05
12 | G9U C67G | < 1e-05 | < 1e-05 |  | < 1e-05 | 
13 | G9C U31G U54C | < 1e-05 |  |  |  | 
14 | G9U G51C | < 1e-05 | < 1e-05 |  |  | < 1e-05
15 | G9U G51U | < 1e-05 | < 1e-05 | < 1e-05 |  | < 1e-05
16 | G9C U47C A53G G62A C68G | < 1e-05 |  |  |  | < 1e-05
17 | C10U A52C U57G | < 1e-05 |  | < 1e-05 | < 1e-05 | < 1e-05
18 | G9C G13C G35C | < 1e-05 |  | < 1e-05 |  | 
19 | G9A U46G G62A | < 1e-05 |  |  | < 1e-05 | 
20 | C10G G40C C70G | < 1e-05 | < 1e-05 | < 1e-05 | < 1e-05 | < 1e-05
21 | G9A G13A A14C C61A | < 1e-05 |  |  |  | < 1e-05
22 | G9A C68G | < 1e-05 | < 1e-05 | < 1e-05 | < 1e-05 | < 1e-05
23 | G9U A14G G59C C68U | < 1e-05 |  |  |  | < 1e-05
24 | C10G A14C | < 1e-05 |  |  |  | < 1e-05
25 | C10G C16G C34U G43C A52C U55C | < 1e-05 |  |  |  | < 1e-05
26 | C8U C11U A12C A48G G62A C67U | < 1e-05 |  |  | < 1e-05 | < 1e-05
27 | C10G G43A G62U | < 1e-05 |  | < 1e-05 |  | 
28 | G9A A14C G44U U47C | < 1e-05 |  |  |  | 

Row | Variant | self-cleavage kobs at 40 uM GlcN6P [1] [s⁻¹] | self-cleavage kobs at 160 uM GlcN6P [2] [s⁻¹] | self-cleavage kobs at 640 uM GlcN6P [3] [s⁻¹] | self-cleavage kobs at 2500 uM GlcN6P [4] [s⁻¹] | self-cleavage kobs at 10000 uM GlcN6P [5] [s⁻¹]
29 | C10A A14C A42C G63A | < 1e-05 | < 1e-05 |  |  | < 1e-05
30 | G9U C70U | < 1e-05 | < 1e-05 | < 1e-05 |  | < 1e-05
31 | C8U G9A A15C A36G U49C U57G | < 1e-05 |  |  |  | 
32 | G9A A14C G41U U55C | < 1e-05 |  |  |  | 
33 | C10A C70G | 2.53e-05 ± 1e-05 |  | 0.000116 ± 1.8e-05 |  | 
34 | G9A C58U C61G | < 1e-05 |  |  |  | < 1e-05
35 | G9A G35A | < 1e-05 | < 1e-05 | < 1e-05 |  | 
36 | G9C U57C C71A | < 1e-05 |  |  |  | < 1e-05
37 | C10G A33U G43U G63C C71G | < 1e-05 |  |  |  | 
38 | G9A A39C | < 1e-05 | < 1e-05 |  | < 1e-05 | 
39 | G9A C58G U65C | < 1e-05 |  | < 1e-05 | < 1e-05 | 
40 | C10G G35U A39U | < 1e-05 |  |  |  | 
41 | G9A A14U A39G | < 1e-05 |  |  | < 1e-05 | 
42 | C8U A39C | < 1e-05 | < 1e-05 | < 1e-05 | < 1e-05 | < 1e-05
43 | G9U G41U A42G A64U C71U | < 1e-05 |  |  |  | < 1e-05
44 | G9U U31G G32C G62A | < 1e-05 |  |  |  | 
45 | G9U A15U G41A U55A G60A | < 1e-05 |  |  |  | < 1e-05
46 | C10A C61A C67G | 4.33e-05 ± 1.9e-05 |  |  |  | 
47 | C10G C16G G35C A39C | < 1e-05 |  |  |  | < 1e-05
48 | C10G G38C U69G | < 1e-05 |  | < 1e-05 |  | 
49 | C8U C10A | < 1e-05 | < 1e-05 | < 1e-05 | < 1e-05 | < 1e-05
50 | C10G A42C U47A G59U | < 1e-05 |  |  |  | 
51 | G9A G13A C34G U49C C68U | < 1e-05 |  |  |  | 
52 | C10G U55G | < 1e-05 |  |  |  | 
53 | C8U G63U | < 1e-05 | < 1e-05 | < 1e-05 |  | 
54 | G9U C16G C71U | < 1e-05 |  |  | < 1e-05 | 
55 | C10G G63C | < 1e-05 | < 1e-05 | < 1e-05 | < 1e-05 | 

Reference: the supplement of paper PMC7125110
